How the values were obtained:
[1] = target: T1, 3x HA-tagged FAK FERM domain (FAK residues R35-P362) (UniProt Q05397 35-362); assay: Western blot of lysates of transfected SF767 cells
T1 construct: range 35-362
T1 sequence (looked up): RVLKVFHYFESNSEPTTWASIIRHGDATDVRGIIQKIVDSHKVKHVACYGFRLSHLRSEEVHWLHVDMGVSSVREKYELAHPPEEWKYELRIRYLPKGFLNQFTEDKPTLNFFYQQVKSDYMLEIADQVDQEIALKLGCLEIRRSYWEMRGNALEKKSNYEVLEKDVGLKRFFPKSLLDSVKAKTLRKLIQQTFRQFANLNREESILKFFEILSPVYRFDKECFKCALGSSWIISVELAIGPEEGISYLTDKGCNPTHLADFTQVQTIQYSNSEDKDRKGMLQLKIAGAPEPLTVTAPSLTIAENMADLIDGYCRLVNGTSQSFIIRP

Pyk2 FERM (FAKF3) = target: T2, Pyk2 FERM (FAKF3) (UniProt Q14289 39-260; Q05397 254-362); assay: Western blot of lysates of transfected SF767 cells
T2 construct: range 39-260;range 254-362; A chimera made by splice overlap extension PCR; The range 39-260 of Pyk2 is derived from the printed limits of the FERM domain (R39-A366) and the F3 module (D261-A366); also called Pyk2 FERM domain containing the FAK FERM F3 domain

[2] = target: T3, HA-epitope tagged wild type FAK (UniProt Q05397 2-1052, limits assumed); assay: Western blot of lysates of transfected SF767 cells
T3 construct: mature; also called full length FAK; tyrosine kinase FAK
T3 sequence (Q05397 2-1052 limits assumed): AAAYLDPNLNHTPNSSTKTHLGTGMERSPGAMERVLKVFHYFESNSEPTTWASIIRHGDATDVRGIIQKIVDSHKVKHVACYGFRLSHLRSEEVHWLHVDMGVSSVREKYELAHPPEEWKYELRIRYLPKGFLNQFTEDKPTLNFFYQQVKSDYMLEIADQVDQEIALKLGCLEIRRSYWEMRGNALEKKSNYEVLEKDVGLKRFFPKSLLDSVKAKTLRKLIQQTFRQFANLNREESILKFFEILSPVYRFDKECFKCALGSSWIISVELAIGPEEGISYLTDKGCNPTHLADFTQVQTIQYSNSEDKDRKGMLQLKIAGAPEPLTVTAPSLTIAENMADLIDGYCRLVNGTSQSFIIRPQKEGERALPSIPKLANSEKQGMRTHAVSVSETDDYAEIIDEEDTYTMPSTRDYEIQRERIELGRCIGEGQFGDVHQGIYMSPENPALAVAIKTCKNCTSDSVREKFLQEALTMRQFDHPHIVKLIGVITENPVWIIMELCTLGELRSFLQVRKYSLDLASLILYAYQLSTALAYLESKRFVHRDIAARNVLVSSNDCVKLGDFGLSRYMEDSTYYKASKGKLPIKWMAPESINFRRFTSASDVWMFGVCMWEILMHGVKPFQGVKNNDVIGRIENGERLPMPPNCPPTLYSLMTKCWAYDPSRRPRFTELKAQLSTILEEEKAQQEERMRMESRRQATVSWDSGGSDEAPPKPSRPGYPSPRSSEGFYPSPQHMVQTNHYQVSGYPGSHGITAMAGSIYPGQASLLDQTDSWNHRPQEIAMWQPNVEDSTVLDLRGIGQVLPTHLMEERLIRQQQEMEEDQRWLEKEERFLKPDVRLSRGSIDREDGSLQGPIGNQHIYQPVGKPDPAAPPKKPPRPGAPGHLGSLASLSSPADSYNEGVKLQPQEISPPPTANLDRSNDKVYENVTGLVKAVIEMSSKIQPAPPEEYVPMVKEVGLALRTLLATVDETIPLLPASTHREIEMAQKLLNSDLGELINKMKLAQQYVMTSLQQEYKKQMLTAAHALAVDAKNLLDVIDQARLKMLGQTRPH

Pyk2 FERM I308E variant = target: T4, Pyk2 FERM I308E variant (UniProt Q14289 39-366); assay: capture sandwich ELISA with hybridoma supernatant
T4 construct: domain: FERM domain; Printed once as '1308E' (a misprint of I308E); also called Pyk2 FERM variant 1308E
T4 sequence (Q14289 39-366 I308E): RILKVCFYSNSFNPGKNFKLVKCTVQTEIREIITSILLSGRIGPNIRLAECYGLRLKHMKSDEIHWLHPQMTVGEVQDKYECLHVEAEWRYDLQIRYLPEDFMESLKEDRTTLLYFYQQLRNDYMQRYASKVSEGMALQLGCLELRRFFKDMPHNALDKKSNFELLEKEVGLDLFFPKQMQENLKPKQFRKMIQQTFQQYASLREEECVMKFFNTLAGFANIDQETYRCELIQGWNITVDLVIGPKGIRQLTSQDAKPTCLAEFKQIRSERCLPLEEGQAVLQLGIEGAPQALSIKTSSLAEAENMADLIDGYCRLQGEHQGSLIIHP

FLAG tagged Pyk2 W104A = target: T5, FLAG tagged Pyk2 W104A (UniProt Q14289 1-1009, limits assumed); assay: anti-FLAG immunoprecipitation and 12A10 immunoblot
T5 construct: mature; also called Pyk2 with substitution of W104
T5 sequence (Q14289 whole entry W104A): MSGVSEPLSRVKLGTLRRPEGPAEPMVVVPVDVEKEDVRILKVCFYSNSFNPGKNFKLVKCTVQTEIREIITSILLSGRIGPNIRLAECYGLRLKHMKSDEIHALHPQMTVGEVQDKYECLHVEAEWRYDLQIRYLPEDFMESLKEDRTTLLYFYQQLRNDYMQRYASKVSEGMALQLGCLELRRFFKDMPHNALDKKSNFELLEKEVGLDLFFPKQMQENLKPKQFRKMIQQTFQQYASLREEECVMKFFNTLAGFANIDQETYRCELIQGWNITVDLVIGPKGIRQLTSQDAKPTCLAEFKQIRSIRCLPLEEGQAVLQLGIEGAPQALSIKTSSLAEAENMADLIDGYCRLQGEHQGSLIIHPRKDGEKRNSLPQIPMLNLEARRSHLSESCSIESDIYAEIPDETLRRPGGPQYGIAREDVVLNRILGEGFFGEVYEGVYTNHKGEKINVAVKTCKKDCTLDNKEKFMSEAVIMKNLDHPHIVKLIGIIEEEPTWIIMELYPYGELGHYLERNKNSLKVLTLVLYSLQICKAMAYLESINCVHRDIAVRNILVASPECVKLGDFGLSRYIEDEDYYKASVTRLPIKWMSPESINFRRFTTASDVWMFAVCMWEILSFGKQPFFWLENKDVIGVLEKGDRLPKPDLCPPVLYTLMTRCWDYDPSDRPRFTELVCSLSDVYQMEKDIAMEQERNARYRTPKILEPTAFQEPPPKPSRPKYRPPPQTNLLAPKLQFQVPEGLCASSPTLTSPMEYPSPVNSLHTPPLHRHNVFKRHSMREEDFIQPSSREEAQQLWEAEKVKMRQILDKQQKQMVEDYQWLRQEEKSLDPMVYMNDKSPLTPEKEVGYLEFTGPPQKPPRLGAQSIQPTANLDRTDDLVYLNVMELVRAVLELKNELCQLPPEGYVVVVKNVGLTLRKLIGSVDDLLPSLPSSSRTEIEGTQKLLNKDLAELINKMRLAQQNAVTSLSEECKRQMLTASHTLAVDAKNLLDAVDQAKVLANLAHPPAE
From the text: (§1) FIG. 2 (bottom panel) depicts a Western blot using anti-Pyk2 12A10 monoclonal antibody. SF767 cells were transfected with FLAG epitope tagged wild type (WT) Pyk2 or Pyk2 with the indicated amino acid substitution. Cells were lysed, Pyk2 was immunoprecipitated with anti-FLAG mAb, and immunoprecipitates immunoblotted with anti FLAG, anti-phosphotyrosine mAb pY20 or mAb 12A10. FIG. 2 (top) is a three dimensional model of the Pyk2 FERM with the locations of interacting residues, indicated by Arial font and non-interacting surfaces indicated by Times Roman font.
(§2) Immunoprecipitation of cleared lysates was performed as described elsewhere (Lipinski et al., Biochem. Biophys. Res. Commun., 349:939-947 (2006)). For immunoblotting, equal amounts of protein (10-20 μg) were electrophoresed on 8-16% gradient SDS-PAGE gels (Invitrogen, Carlsbad, Calif.) and transferred to nitrocellulose. Immunoblotting of transferred proteins was performed with the appropriate primary antibodies for 1 hour at room temperature and was visualized by enhanced chemiluminescence (Perkin Elmer Life Sciences, Boston, Mass.).

FLAG tagged Pyk2 D346A = target: T6, FLAG tagged Pyk2 D346A (UniProt Q14289 1-1009, limits assumed); assay: anti-FLAG immunoprecipitation and 12A10 immunoblot
T6 construct: mature; also called Pyk2 with substitution of D346
T6 sequence (Q14289 whole entry D346A): as the sequence (Q14289 whole entry W104A) above, with A104W, D346A counted along it
From the text: as §1, §2

FLAG tagged Pyk2 R306E = target: T7, FLAG tagged Pyk2 R306E (UniProt Q14289 1-1009, limits assumed); assay: anti-FLAG immunoprecipitation and 12A10 immunoblot
T7 construct: mature; also called Pyk2 with substitution of R306
T7 sequence (Q14289 whole entry R306E): as the sequence (Q14289 whole entry W104A) above, with A104W, R306E counted along it
From the text: as §1, §2

FLAG tagged Pyk2 I308E = target: T8, FLAG tagged Pyk2 I308E (UniProt Q14289 1-1009, limits assumed); assay: anti-FLAG immunoprecipitation and 12A10 immunoblot
T8 construct: mature; also called Pyk2 with substitution of I308
T8 sequence (Q14289 whole entry I308E): as the sequence (Q14289 whole entry W104A) above, with A104W, I308E counted along it
From the text: as §1, §2

FLAG tagged Pyk2 Y135C = target: T9, FLAG tagged Pyk2 Y135C (UniProt Q14289 1-1009, limits assumed); assay: anti-FLAG immunoprecipitation and 12A10 immunoblot
T9 construct: mature; also called Pyk2 with substitution of Y135
T9 sequence (Q14289 whole entry Y135C): as the sequence (Q14289 whole entry W104A) above, with A104W, Y135C counted along it
From the text: as §1, §2

B1: mouse monoclonal antibody 12A10 (antibody, V domains shown)
VH: EVKLQESGPELKKPGETVKISCKASGYTFTDYSMHWVMQSPGKGLKWMGWINTETGEPRYVDDFKGRFAFSLETSASTAYLQIINLKNEDTATYFCARWDHGHGGFTYWGQGTLVTVSA
VL: DIVLTQTTASLAVSLGQRATMSCRATESVDSYGKSFMYWFQQRAGQPPKLLIYLASNLESVVPPRFSGSGSRTDFSLTIDPVEADDAATYYCQQNNEDPFTFGSGTKLEIK
notes: Mouse IgG1 from hybridoma 12A10, raised against the His-tagged Pyk2 F3 module (D261-A366); Used as hybridoma supernatant in the ELISA screen and as an antibody in the Western blots; also called mAb 12A10; anti-Pyk2 12A10 monoclonal antibody
binding result [1]: no binding | binding result (Pyk2 FERM (FAKF3)): no binding | binding result [2]: no binding | binding result (Pyk2 FERM I308E variant): no binding | binding result (FLAG tagged Pyk2 W104A): binds | binding result (FLAG tagged Pyk2 D346A): binds | binding result (FLAG tagged Pyk2 R306E): no binding | binding result (FLAG tagged Pyk2 I308E): no binding | binding result (FLAG tagged Pyk2 Y135C): binds

From patent publication US20110136232A1 (MAYO FOUNDATION FOR MEDICAL EDUCATION AND RESEARCH, published 2011)
